Test results published in the supplement of paper PMC10126150.
± gives the standard deviation of the averaged measurements.
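Also: ATP exposure 15 min at 22 °C before imaging.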

The sequences below were run on ATP (assay: switch fluorescence ratio, 500 uM ATP over buffer (Cy3 cluster intensity, sum of 5 cycles each) (fold (ratio)); higher = stronger signal-on switching upon ATP binding; sequences stand for … in TCGTCGGCAGCGTCAGATGTGTATAAGAGACAGTTTTTTTTTTTTTTTTTTTTTTTTT…TC). Conditions: aptamer strand: ATP DNA aptamer (quencher-CACCTGGGGGAGTATTGCGGAGGAAGG + anchor), 100 nM annealed; ATP concentration: 500 uM.
How it was run: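 For every switch-domain sequence, the fluorescence ratio is the mean of per-cluster values, each being summed target-cycle Cy3 intensity over summed buffer-cycle Cy3 intensity. Clusters outside 100-1000 RFU were excluded. On a modified Illumina MiSeq flow-cell, the Cy3-labelled switching-strand clusters were annealed to 100 nM quencher-labelled ATP aptamer, imaged in selection buffer and then after 15 min with 500 uM ATP at 22 °C. Five such cycles were run, with NaOH stripping and re-annealing between them.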
Work on TCCACTCTTC yielded a switch fluorescence ratio of 0.991 ± 0.024.
In the case of TTCTGTATGC, the switch fluorescence ratio is reported as 1.02 ± 0.045.
AGGTTGTGAG gave a switch fluorescence ratio of 0.98 ± 0.034.
With GGTTCGTGTC the switch fluorescence ratio was 0.974 ± 0.016.
CGGGTTTAAA gave a switch fluorescence ratio of 1 ± 0.011.
With GAGGTTTATA the switch fluorescence ratio was 0.984 ± 0.043.
For AGAAAGGCGG, the switch fluorescence ratio was 0.9715 ± 0.0027.
In the case of CTGTGGGCTG, the switch fluorescence ratio is reported as 0.989 ± 0.04.
TTCAGAGAAA was tested, and the switch fluorescence ratio was 0.98 ± 0.034.
AAAATCCTTG gave a switch fluorescence ratio of 1.01 ± 0.04.
With ATTGTACAGT the switch fluorescence ratio was 1.02 ± 0.025.
In the case of GTAGCGCGTC, the switch fluorescence ratio is reported as 1.03 ± 0.026.
Sequence GGGTACTGTG has a switch fluorescence ratio of 0.971 ± 0.015.
Work on TCATGAACTT yielded a switch fluorescence ratio of 1.07 ± 0.078.
In the case of ATGCAACCAT, the switch fluorescence ratio is reported as 1.01 ± 0.013.
For AACGCGAACG, the switch fluorescence ratio was 1.06 ± 0.016.
For CTGGGTAGGC, the switch fluorescence ratio was 0.992 ± 0.018.
CCGGGCCATC gave a switch fluorescence ratio of 2.3 ± 0.038.
TGGGACAAGC gave a switch fluorescence ratio of 0.979 ± 0.032.
In the case of GAACTCGGTC, the switch fluorescence ratio is reported as 0.994 ± 0.01.
CGAGAGGGGG was tested, and the switch fluorescence ratio was 0.9723 ± 0.0065.
With AAAATTCAAG the switch fluorescence ratio was 0.983 ± 0.016.
ATATGCTAAG showed a switch fluorescence ratio of 0.9935 ± 0.0099.
In the case of AACCCCCGTT, the switch fluorescence ratio is reported as 1.07 ± 0.09.
With CGTTTTTGGC the switch fluorescence ratio was 0.992 ± 0.074.
In the case of TGTATTAGTA, the switch fluorescence ratio is reported as 0.949 ± 0.0089.
GTTAGAGGGT showed a switch fluorescence ratio of 1.01 ± 0.021.
In the case of TTTGAGAAAT, the switch fluorescence ratio is reported as 0.994 ± 0.029.
With TCGGGGATG the switch fluorescence ratio was 1.52 ± 0.83.
With CACTCAGGGA the switch fluorescence ratio was 1.04 ± 0.046.
With GGGAGAAGCG the switch fluorescence ratio was 0.982 ± 0.014.
Sequence GGTAAATGTG has a switch fluorescence ratio of 1.03 ± 0.072.
In the case of ATGGACTATG, the switch fluorescence ratio is reported as 1.02 ± 0.043.
Work on GGATGCGGCC yielded a switch fluorescence ratio of 0.992 ± 0.023.
Work on ATAATGTGGG yielded a switch fluorescence ratio of 0.99618 ± 0.00014.
Work on TAAGGTCGGC yielded a switch fluorescence ratio of 0.986 ± 0.028.
Sequence CCAGGGTTGT has a switch fluorescence ratio of 1.11 ± 0.037.
GAGGGGATAT showed a switch fluorescence ratio of 1.38 ± 0.59.
GAATGTATTG gave a switch fluorescence ratio of 1.013 ± 0.006.
CGCAGCGGTT gave a switch fluorescence ratio of 1.49 ± 0.041.
For GTATTGGTCG, the switch fluorescence ratio was 1.058 ± 0.0091.
CTTAGATAGT gave a switch fluorescence ratio of 1.01 ± 0.0098.
In the case of CGGGGCGGTG, the switch fluorescence ratio is reported as 1.02 ± 0.037.
Work on TTACACTTGT yielded a switch fluorescence ratio of 1 ± 0.032.
In the case of TTTTATTCGT, the switch fluorescence ratio is reported as 1.01 ± 0.025.
GCAAGTGTTC was tested, and the switch fluorescence ratio was 1.01 ± 0.018.
GTTGGGTCAT showed a switch fluorescence ratio of 1.01 ± 0.045.
For CCGGTCTAGC, the switch fluorescence ratio was 1.14 ± 0.041.
In the case of GGTGTGCCAT, the switch fluorescence ratio is reported as 0.9897 ± 0.0069.
Sequence GGGAGAATTT has a switch fluorescence ratio of 1.29 ± 0.43.
For GCTCGGGGGC, the switch fluorescence ratio was 1.008 ± 0.0081.
AGTTCCATCG gave a switch fluorescence ratio of 1.05 ± 0.047.
CGTTTTGGGC was tested, and the switch fluorescence ratio was 1.04 ± 0.033.
With ACCAAATAAG the switch fluorescence ratio was 1.02 ± 0.023.
ATCGGGAGCC was tested, and the switch fluorescence ratio was 0.959 ± 0.03.
With ATTTGGTAAT the switch fluorescence ratio was 0.952 ± 0.01.
ATAAAAGGTG showed a switch fluorescence ratio of 1.1 ± 0.074.
In the case of CTCGAGAAGA, the switch fluorescence ratio is reported as 1.01 ± 0.022.
With TGGGACCCAT the switch fluorescence ratio was 1.02 ± 0.055.
In the case of TTTCGAATTT, the switch fluorescence ratio is reported as 1.02 ± 0.04.
AACTTATTTT was tested, and the switch fluorescence ratio was 1 ± 0.003.
Sequence TTTCGTTTTA has a switch fluorescence ratio of 0.996 ± 0.033.
For AGATGCCATG, the switch fluorescence ratio was 1.032 ± 0.0075.
GAGTCCGTAC was tested, and the switch fluorescence ratio was 1.31 ± 0.017.
For CCTGGCATTG, the switch fluorescence ratio was 1.18 ± 0.09.
Work on CCATGCCACA yielded a switch fluorescence ratio of 1.05 ± 0.029.
TTTCTCAGTG showed a switch fluorescence ratio of 0.969 ± 0.011.
For AAAAGAGGTT, the switch fluorescence ratio was 0.9996 ± 0.0072.
GCTGGGGCCA gave a switch fluorescence ratio of 1.023 ± 0.0017.
With TCCTCAAATG the switch fluorescence ratio was 1.607 ± 0.002.
CTTTCGTCTG gave a switch fluorescence ratio of 1.01 ± 0.035.
GGTCCTACTG showed a switch fluorescence ratio of 1.01 ± 0.017.
With GACTTAGCTT the switch fluorescence ratio was 1.046 ± 0.0055.
For GCAATATTTC, the switch fluorescence ratio was 2.31 ± 0.35.
AATTACGTTT gave a switch fluorescence ratio of 1.06 ± 0.062.
In the case of TAGAAAAAGC, the switch fluorescence ratio is reported as 0.9717 ± 0.0093.
GATGCAGTTT was tested, and the switch fluorescence ratio was 1.03 ± 0.019.
TGGGAAAAAA showed a switch fluorescence ratio of 0.985 ± 0.035.
Work on TTTAGGCAT yielded a switch fluorescence ratio of 0.986 ± 0.028.
In the case of CGCCGGGAGG, the switch fluorescence ratio is reported as 0.989 ± 0.073.
In the case of GTGAAACGGT, the switch fluorescence ratio is reported as 1.03 ± 0.043.
In the case of CAACCAGTGT, the switch fluorescence ratio is reported as 1.31 ± 0.026.
GTGTTTTCCT showed a switch fluorescence ratio of 1.04 ± 0.017.
Work on AGTCTGGACT yielded a switch fluorescence ratio of 0.988 ± 0.025.
Sequence CCACTAGGGC has a switch fluorescence ratio of 1.09 ± 0.017.
GGTTCAAGGC was tested, and the switch fluorescence ratio was 1.05 ± 0.051.
Work on TATTTTACCA yielded a switch fluorescence ratio of 1.017 ± 0.0061.
For AGAACATAGA, the switch fluorescence ratio was 0.986 ± 0.0025.
In the case of GCTATAATCG, the switch fluorescence ratio is reported as 1.073 ± 0.0027.
For ATGACGCCTG, the switch fluorescence ratio was 1 ± 0.022.
Work on GGGGGGCTTG yielded a switch fluorescence ratio of 1.02 ± 0.043.
With ATCGTTGAGG the switch fluorescence ratio was 0.986 ± 0.023.
CAGTTGGGAT gave a switch fluorescence ratio of 0.969 ± 0.026.
For TCCAGGGCGA, the switch fluorescence ratio was 1.16 ± 0.13.
CAATTCGTCT showed a switch fluorescence ratio of 0.994 ± 0.075.
ACCACGCGGG showed a switch fluorescence ratio of 1.01 ± 0.066.
With ATCTCTGGGT the switch fluorescence ratio was 1 ± 0.033.
With GGGGGCAGGA the switch fluorescence ratio was 0.987 ± 0.017.
TCCGATTATG gave a switch fluorescence ratio of 1.0175 ± 0.00092.
ACTTGGTGTG was tested, and the switch fluorescence ratio was 1.01 ± 0.052.
